Tests used:
[1] = biological target: dummy-Fc heavy chain constant region with CH3B of mutant EW-RVT (S-S) (Q347R/S354C/D399V/F405T) (human) [IgG part: P0DOX5]; assay: non-reducing SDS-PAGE, EW-RVT (S-S) against EW-RVT
[2] = biological target: dummy-Fc heavy chain constant region with CH3B of mutant SW-WVT (S-S) (Y349C/E357W/D399V/F405T) (human) [IgG part: P0DOX5]; assay: non-reducing SDS-PAGE, SW-WVT (S-S) against SW-WVT

greater heterodimer formability than the variant without disulfide bridge [1] [%] | greater heterodimer formability than the variant without disulfide bridge [2] [%] | Substance
3 | – | hAY4a scFv-Fc heavy chain with CH3A of mutant EW-RVT (S-S) (Y349C/K360E/K409W) (from UniProt P0DOX5 227-449) (Fc fusion)
– | 9 | hAY4a scFv-Fc heavy chain with CH3A of mutant SW-WVT (S-S) (Y349S/S354C/K409W) (from UniProt P0DOX5 227-449) (Fc fusion)

— patent US20150307628A1
